The values below come from publication PMC8866119 (Nature, 2021).

This assay deals with SARS-CoV-2 Omicron (B.1.1.529) RBD (SARS-CoV-2 Omicron B.1.1.529 (BA.1), strain).

B1: BD-708 (antibody, V domains shown)
VH: QVQLVESGGGVVQPGRSLRLSCAASGFTLSNYAMHWVRQAPGTGLEWVAVISDDGSIKFYADSVKGRFTISRDNSKNTLYLQMNSLRAEDTAVYYCARDGDDSSGYFFDYWGQGTLVTVSS
VL: DIQMTQSPSSLSASVGDRVTITCRASQGINNFLAWYQQKPGKAPKLLLYSASRLESGVPSRFSGSGSGTDYTLTISSLQPEDFATYYCQQYYSTLALTFGGGTKVEIK
Regarding B1, the binding result was “binds”.

B2: BD55-3304 (antibody, V domains shown)
VH: QVQLVESGGGVVQPERSLRLSCAASGFIFSNYGMHWVRQAPGKGLEWVALIWYDGSNRYYADSVKGRFTISRDNSRNTLYLQMNSLRAEDTAMYYCAKSALRGYSGYDFFSRVSDEYYFDNWGQGTLVTVSS
VL: DIVMTQSPDSLAVSLGERATISCKSSQSVLYSSNNQNYLAWYQQKPGQPPKLLIKWASTRESGVPDRFSGSGSGTDFTLTITSLQAEDVAVYYCQQYFDTPHFGQGTKLEIK
As for B2, the binding result is “binds”.

B3: DH1045 (antibody, V domains shown)
VH: QLQLQESGPGLVKPSETLSLTCTVSGGSISSSGYYWGWIRQPPGKGLEWIGTIYYGGSTYYSPSLKSRVTISVDTSKNQFSLKLSSVTAADTAVYYCASQQWLRGNFDYWGQGTLVTVSS
VL: NFMLTQPHSVSESPGKTVTISCTGSSGSIASNYVQWYQQRPGSAPTTVIYEDNQRPSGVPDRFSGSIDSSSNSASLTISGLKTEDEADYYCQSYDSSTYWVFGGGTKLTVL
As to B3, the binding result is “binds”.

B4: BD55-5267 (antibody, V domains shown)
VH: QVQLQESGPGLVKPSGTLSLTCAVSGGSISSSNWWSWVRQPPGKGLEWIGEIYHSGSTNYNPSLKSRVTISVDKSKNKFSLKLSSVTAADTAVYFCARAGWIESGYDAFVGYFDYWGQGTLVTVSS
VL: DIQMTQSPSSLSASVGDRVTITCRASQGISSSLAWYQQKPGKAPDLLLYAASGLESGVPSRFSGSGSGTDFTLSISSLQPEDFATYYCQQYYSPPRTFGQGTKLEIK
Regarding B4, the binding result is “binds”.
